From publication doi:10.1101/2021.05.19.444448

B1: SCAN-12 / PGBD1 oligo (GS-PGBD1-UP/LOW) (dsDNA)
DNA 1: GCTTTCAATGGAATGGAATGCCTTCC
DNA 2: GGAAGGGATTCCATTCCATTGAAAGC
B2: unlabelled PGBD1 oligo (competitor) (dsDNA)
DNA 1: GCTTTCAATGGAATGGAATGCCTTCC
DNA 2: GGAAGGGATTCCATTCCATTGAAAGC

Key:
HA-PGBD1 [1] = molecular target: T1, HA-PGBD1 (Homo sapiens, UniProt Q96JS3 1-809); assay: EMSA
T1 sequence: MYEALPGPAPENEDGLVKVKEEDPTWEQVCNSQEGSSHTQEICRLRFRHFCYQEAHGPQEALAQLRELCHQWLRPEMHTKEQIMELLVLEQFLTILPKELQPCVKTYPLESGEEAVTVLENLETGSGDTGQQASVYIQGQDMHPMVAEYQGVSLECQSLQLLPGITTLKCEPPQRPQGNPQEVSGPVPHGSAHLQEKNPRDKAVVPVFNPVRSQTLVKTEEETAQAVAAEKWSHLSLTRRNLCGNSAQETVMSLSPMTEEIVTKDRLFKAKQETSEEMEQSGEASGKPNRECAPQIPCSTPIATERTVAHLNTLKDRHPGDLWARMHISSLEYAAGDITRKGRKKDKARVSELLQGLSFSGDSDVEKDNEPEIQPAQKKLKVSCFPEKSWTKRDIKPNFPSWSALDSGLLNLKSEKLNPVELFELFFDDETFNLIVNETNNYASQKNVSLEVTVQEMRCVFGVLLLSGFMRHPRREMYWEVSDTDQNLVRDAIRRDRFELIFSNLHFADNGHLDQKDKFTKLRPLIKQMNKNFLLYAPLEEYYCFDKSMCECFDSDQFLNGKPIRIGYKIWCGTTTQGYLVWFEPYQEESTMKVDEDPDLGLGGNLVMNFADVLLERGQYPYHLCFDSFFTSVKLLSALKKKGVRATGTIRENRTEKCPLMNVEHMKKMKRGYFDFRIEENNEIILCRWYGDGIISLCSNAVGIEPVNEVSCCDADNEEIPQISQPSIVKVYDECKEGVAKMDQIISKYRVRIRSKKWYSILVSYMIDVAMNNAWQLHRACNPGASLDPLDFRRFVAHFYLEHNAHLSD

HA-PGBD1 [2] = molecular target: T1, HA-PGBD1; assay: competition

Binder | binding result (HA-PGBD1 [1]) | binding result (HA-PGBD1 [2])
B1 | binds | –
B2 | – | binds
